Patent publication US20210324068A1 (H LUNDBECK A S, published 2021)

Molecular target: T1, Pituitary Adenylate Cyclase-Activating Polypeptide 38 (PACAP38) (Homo sapiens, not fully specified; C-terminal lysine is amidated; N-terminally or C-terminally biotinylated in the HTRF binding assay and N-terminally biotinylated in the PC-12 cell binding assay)
T1 construct: synthetic peptide (American Peptide; AnaSpec for biotinylated forms); also called human PACAP38; PACAP 1-38
T1 peptide: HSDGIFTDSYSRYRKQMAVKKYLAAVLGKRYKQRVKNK
Experiment: SPR ProteOn, Ab immobilized

B1: Ab22 (antibody, V domains shown)
VH: QEQLVESGGGLVQPEGSLTLTCTASGFDFSSNAMCWVRQAPGKGLEWIGSIYNADGKNYYAIWAKGRFTISRTSSTTVTLQMTSLTAADTATYFCARDFDLWGQGTLVTVSS
VL: AAVLTQTPSPVSAAVGGTVTINCQSSQSVYDNDWLAWFQQKPGQPPKLLIYLTSTLASGVPSRFSGSGSGTQFTLTISGVQCDDAATYYCLGGYDEDGDTHVFGGGTEVVVKR
Question: With B1 as the binder, how does the Kd read?
Answer: The Kd was 0.027 nM.

Question: What about the koff of the same binder?
Answer: The koff was 1e-05 s⁻¹.
